Data on three molecules can be found in US20170248602A1 (ALLERGAN, published 2017).

Numbering of substitutions follows the chain as printed.

To fix the notation:
B1: α-SNAP-25 mouse monoclonal antibody 2E2A6 (antibody, V domains shown)
VH: QVQLQQSDAELVKPGASVKISCRASGYTFTDHSIHWVKQQPGQGLEWIGYIFPGNGNIEYNDKFKGKATLTADKSSGTAYMQLNSLTSEDSAVYFCKRMGYWGQGTSVTVSS
VL: DVLMTQTPLTLSVTIGQPASISCKSSQSLLYTNGKTYLTWLFQRPGQSPKRLIYLVSELDSGVPDRFSGSGSGTDFTLEITRVEAEDLGVYYCLQSAHFPFTFGSGTKLEIKR
B2: α-SNAP-25 mouse monoclonal antibody 3C1A5 (antibody, V domains shown)
VH: QVKLQESGAELVKPGASVKISCKASGYTFTDHSIHWVKQKPGQGLEWIGYLFPGNGNFEYNEKFKGKATLTADKSSSTVYMYLNSLTSEDSAVYFCKRMGYWGQGTTVTVSS
VL: B1 VL with L3V, Y31N, F42I, K50Q, E58K, E79K, T81S, A97S
B3: α-SNAP-25 mouse monoclonal antibody 1D3B8 (antibody, V domains shown)
VH: QVKLQESGAELVKPGASVKISCKASGYIFTDHALHWVRQKPEQGLEWIGYIFPGNGNIEYNEKFKGKATLTADKSSSTAYMQLNSLTSGDSAMYFCKKMDYWGQGTTVTVSS
VL: DVLMTQTPLSLPVSLGDQASISCRSSQSIVHSNGNTYLEWYLQKPGQSPKLLIYKVSNRFSGVPDRFSGSGSGTDFTLKISRVEAEDLGVYYCFQGSHVPPTFGAGTKLELKR

The target in this experiment is T1, SNAP-25206 uncleaved substrate in PC12 cells (rat (PC12 cells), UniProt P60881 1-206).
T1 construct: also called uncleaved SNAP-25
T1 sequence (P60881 whole entry): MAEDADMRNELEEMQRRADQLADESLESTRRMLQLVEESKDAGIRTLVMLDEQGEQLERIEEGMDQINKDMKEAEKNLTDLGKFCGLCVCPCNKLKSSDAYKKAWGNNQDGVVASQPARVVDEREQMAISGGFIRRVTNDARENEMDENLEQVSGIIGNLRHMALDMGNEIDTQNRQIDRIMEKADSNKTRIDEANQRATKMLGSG
The experiment is described as follows: cell-based assay: Western blot of PC12 lysates, ascites 1:100. Background: Immunoblotting shows a protein as a band on a membrane.
Take B1: the binding result is on record as “no binding”. The value for B2 was “no binding”; that for B3 was “no binding”.
